# From article PMC10426277 (European journal of pharmacology, 2023)
# T1: Peroxiredoxin 4 mutant, C-terminal 22 amino acids deleted (human, UniProt Q13162 38-249)
# T1 sequence (looked up): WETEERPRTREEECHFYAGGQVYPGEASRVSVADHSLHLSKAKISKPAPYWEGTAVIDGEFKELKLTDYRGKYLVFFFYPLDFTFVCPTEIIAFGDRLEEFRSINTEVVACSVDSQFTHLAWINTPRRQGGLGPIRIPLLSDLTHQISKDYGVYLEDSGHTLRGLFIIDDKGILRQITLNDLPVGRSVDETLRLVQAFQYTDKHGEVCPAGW
# T2: Peroxiredoxin 1 wildtype, recombinant full-length (human, UniProt Q06830 1-199)
# T2 sequence (looked up): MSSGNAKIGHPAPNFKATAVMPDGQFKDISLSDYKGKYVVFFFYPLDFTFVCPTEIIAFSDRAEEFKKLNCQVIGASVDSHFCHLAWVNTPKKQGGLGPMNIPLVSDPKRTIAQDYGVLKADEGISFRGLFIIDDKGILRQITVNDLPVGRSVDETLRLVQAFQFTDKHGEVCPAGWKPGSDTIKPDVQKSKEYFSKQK
# T3: Peroxiredoxin 1 mutant, last 22 amino acids of the C-terminus deleted (human, UniProt Q06830 1-177)
# T3 sequence (looked up): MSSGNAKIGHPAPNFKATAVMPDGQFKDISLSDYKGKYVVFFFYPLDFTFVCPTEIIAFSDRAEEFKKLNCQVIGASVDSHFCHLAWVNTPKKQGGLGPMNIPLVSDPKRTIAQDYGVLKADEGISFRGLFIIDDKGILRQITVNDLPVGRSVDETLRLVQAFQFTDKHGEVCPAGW
# B1: Sulfiredoxin (Srx), recombinant full-length (enzyme)
# chain: not shown
# Legend:
# Experiment in all cases: SPR
# [1] = molecular target: T1, Peroxiredoxin 4 mutant, C-terminal 22 …
# [2] = molecular target: T2, Peroxiredoxin 1 wildtype, recombinant …
# [3] = molecular target: T3, Peroxiredoxin 1 mutant, last 22 amino …
binder,measurement,setting,value
B1,Kd,[1],29.7 µM
same,koff,[1],0.00269 s⁻¹
same,kon,[1],90.4 M⁻¹ s⁻¹
same,Kd,[2],769 µM
same,koff,[2],0.000532 s⁻¹
same,kon,[2],0.693 M⁻¹ s⁻¹
same,Kd,[3],175 nM
same,koff,[3],0.000444 s⁻¹
same,kon,[3],2540 M⁻¹ s⁻¹
